From US20230008090A1 come the findings set out here.

The target in assay [1] is human CD3 on Jurkat.2B8 (CD3+/EGFR-) cells (human) (UniProt P07766). The experiment in a line: flow cytometry on Jurkat.2B8 (CD3+/EGFR-) cells. A general note: Flow cytometry measures light scatter and fluorescence of single cells or particles in a stream.
Assay [2] concerns the target cynomolgus monkey CD3 on cynomolgus monkey PBMC / T cells (cynomolgus monkey) (UniProt Q95LI5). Description: flow cytometry on cyno T cells (cynomolgus monkey PBMC).
For assay [3], the target named is cynomolgus monkey EGFR on CHOK1-cynoPro1 (EGFR+/CD3-) cells (cynomolgus monkey). The experiment in a line: flow cytometry on CHOK1-cynoPro1 cells.
The target in assay [4] is human EGFR on tumor cells (A431, HT-29, MCF-7) (human) (UniProt P00533). The experiment in a line: flow cytometry on A431 (EGFR+/CD3-) cells.

cynomolgus monkey CD3 on cynomolgus monkey PBMC / T cells (cynomolgus monkey), sequence (Q95LI5 22-198): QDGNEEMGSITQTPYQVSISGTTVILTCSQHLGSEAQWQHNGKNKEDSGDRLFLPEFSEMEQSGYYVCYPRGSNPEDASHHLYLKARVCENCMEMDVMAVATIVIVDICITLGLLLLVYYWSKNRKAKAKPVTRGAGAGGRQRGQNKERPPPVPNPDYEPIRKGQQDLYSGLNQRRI
human CD3 on Jurkat.2B8 (CD3+/EGFR-) cells (human), sequence (P07766 23-207): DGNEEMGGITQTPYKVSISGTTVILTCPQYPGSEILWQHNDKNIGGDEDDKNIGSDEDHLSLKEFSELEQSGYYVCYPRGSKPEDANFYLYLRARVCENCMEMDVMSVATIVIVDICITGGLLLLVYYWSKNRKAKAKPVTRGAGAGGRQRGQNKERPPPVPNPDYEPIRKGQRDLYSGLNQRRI

For the substance IgG4 isotype control (antibody), the Top MFI in assay [1] was 235 MFI; in assay [2] it was 210 MFI; in assay [3], 38 MFI; in assay [4], 137 MFI.
